{"source": "patent US8030017B2", "about": "“Thermostable luciferases and methods of production” (Promega Corporation, priority 1997, dated 2011)", "key": {"[1]": {"assay": "Robotic quantitative screen of E. coli lysates: luminescence activity (Li), expression/specific activity", "assay_type": "biochemical", "settings": "relative value", "description": "A plate containing cells is retrieved from the carousel and placed on the shaker for 3-5 minutes to fully mix the cells. The cells tend to settle from solution upon standing.\nTo measure Optical Density (O.D.), the plate is moved from the shaker to the locator near the luminometer; the lid is removed and the plate placed into the luminometer. The O.D. is measured using a 620 nm filter.\nTo prepare a cell lysate, the plate of cells is first retrieved from the refrigerator and mixed on the shaker to resuspend the cells. A new plate from the carousel without a lid is placed in the reagent dispenser and 20 μl of Buffer A is added to each well. This is placed in the pipetting station.\nThe plate is then moved to the reagent dispenser to add 175 μl of Buffer B, and then mixed on the shaker for about 15 minutes or more. The combination of the freeze/thaw and Buffer B will cause the cells to lyse.\n(§1) One daughter plate is placed in the luminometer and the 1X assay method is used. After the assay, the plate is placed in the ambient incubator, and the second daughter plate is placed in the luminometer. For the second plate, the 0.02X assay method is used. This plate is discarded, and the first plate is returned from the incubator to the luminometer. The repeat assay method is used (i.e., no reagent is injected). Afterwards, the plate is again returned to the ambient incubator.\n1X Assay reagent: 5 μM Luciferin; 175 μM ATP; 20 mM Tricine, pH 8.0; 0.1 mM EDTA\n(§2) The following criteria were used for screening purposes. The temperature chosen for the enzyme stability parameter was such that the parent enzyme would decay 100 to 1000 fold over 10 hours (see Table 1). Criteria 1 is achieved manually; data for criteria 2-6 is generated by robotic analysis. For all criteria, the maximum value as described is selected. • 1. In vivo screen. The brightest clones are selected at a given temperature. • 2. Expression/specific activity. The value for normalized luminescence is calculated as the ratio of luminescence to optical density. The value is reported as the ratio with the reference value. • 3. Enzyme stability. Measurements of normalized luminescence of the incubated samples (3 taken over about 15 hours) are fitted to In(L)=In(L0)−(t/τ), where L is normalized luminescence and t is time. τ is a measure of the enzyme stability. The value is reported as the ratio with the reference value, and the correlation coefficients are calculated. • 4. Substrate binding. Measurements of normalized luminescence with 1X and 0.02X are taken at the initial reading set, and 1X and 0.06X are taken at the 5 hour set. The ratio of the 0.02X:1X and 0.06X:1X gives the relative luminescence at 0.02X and 0.06X concentrations. These values, along with the relative luminescence at 1X (i.e., 1), are fitted to a Lineweaver-Burk plot to yield the Km:app,total for the substrates ATP, luciferin, and CoA. The values are reported as the inverse ratio with the reference value, and the correlation coefficients are calculated. • 5. Signal stability. The luminescence of the initial IX luminescent reactions are re-measured 3 additional times over about 15 hours. These values are fitted to In(L)=In(L0)−(t/τ) and the integral over t (15 hours) is calculated. Signal stability is then calculated as S=(1−int(L)/L0t)^2. The values are reported as the inverse ratio with the reference value, and the correlation coefficients are calculated. • 6. Composite fitness. The values of criteria 2 through 5 are combined into a single composite value of fitness (or commercial utility). This value is based on a judgment of the relative importance of the other criteria. This judgment is given below:\nNormalize luminescence data: For each measurement of luminescence in the eight daughter plates, the normalized luminescence is calculated by dividing the relative light units by the optical density of the original plate. […]"}, "[2]": {"assay": "Robotic quantitative screen of E. coli lysates: signal stability (S), sustained enzymatic turnover", "assay_type": "biochemical", "settings": "inverse ratio with reference", "description": "as §1\nThe plate in the ambient incubator is returned to the luminometer and the repeat assay method is again used. The plate is returned afterwards to the ambient incubator.\nThe plate in the ambient incubator is returned to the luminometer and the repeat assay method is again used. The plate is discarded afterwards.\nas §2\nCalculate signal stability (S): For each sample, use linear regression to fit In(L)=In(L0)[…] using the four luminescence measurements of the initial microplate with 1X substrate concentrations (Plates 1, 3, 4, and 7). Also calculate the regression coefficient. From the calculated values of T and L0, calculate the integral of luminescence by int(L)=τL0(1−exp(−tf/τ)), where tf is the average time of the last measurement (e.g., 15 hours). The signal stability is calculated as S=(1−int(L)/Litf)^2, where Li is the initial measurement of normalized luminescence with 1× substrate concentration (Plate 1).\n[Note: To correct for evaporation, an equation S=(1+K−int(L)/Litf)^2, may be used where 1/K=2(relative change of liquid volume at tf).]\nCalculate the reference-normalized values: For the criteria parameter of each sample, a reference-normalized value is determined by calculating the ratio or inverse ratio with the respective reference value. […]"}, "[3]": {"assay": "Robotic quantitative screen of E. coli lysates: enzyme stability (tau) at elevated temperature", "assay_type": "physicochemical", "settings": "relative value", "description": "Two white assay plates (Labsystems #9502887) are obtained from the plate feeder and placed in the pipetter. The incubation plate from the shaker is placed in the pipetter, and the lid removed and placed on the nearby locator. Two daughter plates are made using the pipetting procedure (see “Create Pair of Daughter Plates from Incubation Plate”). Afterwards, the lid is replaced on the parent plate, and the plate is placed in a high temperature incubator. [ranging from 31° C. to about 65° C. depending on the clone.]\nTo begin the second set of measurements, the plate from the high temperature incubator is placed in the shaker to mix.\nIn the final set of measurements, the plate from the high temperature incubator is again placed in the shaker to mix.\nas §2\nCalculate enzyme stability (τ): For each sample, use linear regression to fit In(L1x)=In(L0)−(t/τ) using the three luminescence measurements with 1X substrate concentrations (Plates 1, 5, 8). Also calculate the regression coefficient.\nCalculate the reference-normalized values: For the criteria parameter of each sample, a reference-normalized value is determined by calculating the ratio or inverse ratio with the respective reference value. The reference-normalized values are Li/Lir, τ/τr, Kmr/Km:app,total, and Sr/S, where reference values are calculated from the equations of the appropriate reference surface.\n“Enzyme stability” was determined by the rate of activity loss from cell lysates over 10 hours. In successive rounds of evolution the incubation temperature of the lysates was increased.\nRobotic Automation: Robotic automation was used in the quantitative screens to accurately perform the large number of required quantitative assays on the cultured cells. […]"}, "[4]": {"settings": "Control is Luc84-3A6 at 64° C. (=1)"}, "[5]": {"settings": "Control is Luc71-5D4 at 60° C. (=1)"}, "[6]": {"settings": "Control is Luc46-2H3 at 54° C. (=1)"}}, "data": [{"molecule": "85(86)-4f12: mutant luciferase, SEQ ID NO:23 (protein, not fully specified; X: residue not identified in the source) MADKNILYGPEPFYPLADGTAGEQMFDALSRYADIPGCIALTNAHTKENVLYEEFLKLSCRLAESFKKYGLKQNDTIAVCSENGLQFFLPVIASLYLGIIVAPVNDKYIERELIHSLGIVKPRIIFCSKNTFQKVLNVKSKLKSVETIIILDLNEDLGGYQCLNNFISQNSDINLDVKKFKPYSFNRDDQVALIMFSSGTTGLPKGVMLTHKNIVARFSLAKDPTFGNAINPTTAILTVIPFHHGFGMMTTLGYFTCGFRVVLMHTFEEKLFLQSLQDYKVESTLLVPTLMAFLAKSALVEKYDLSHLKEIASGGAPLSKEIGEMVKKRFKLNFVRQGYGLTETTSAVLITPKXXARPGSTGKIVPFHAVKVVDPTTGKILGPNEPGELYFKGPMIMKGYYNNEEATKAIIDNDGWLRSGDIAYYDNDGHFYIVDRLKSLIKYKGYQVAPAEIEGILLQHPYIVDAGVTGIPDEAAGELPAAGVVVQTGKYLNEQIVQDFVSSQVSTAKWLRGGVKFLDEIPKGSTGKIDRKVLRQMFEKHTNG", "values": [{"measurement": "Luminescence (Li)", "setting": "[1]; [4]", "result": 1.1167}, {"measurement": "Signal stability (S)", "setting": "[2]; [4]", "result": 1.0092}, {"measurement": "Enzyme stability (tau)", "setting": "[3]; [4]", "result": 4.7851}]}, {"molecule": "78-1e1-: mutant luciferase, SEQ ID NO:21 (protein, not fully specified; X: residue not identified in the source) MADKNILYGPEPFYPLADGTAGEQMFDALSRYADIPGCIALTNAHTKENVLYEEFLKLSCRLAESFKKYGLKQNDTIAVCSENGLQYFLPVIASLYLGIIAAPVSDKYIERELIHSLGIVKPRIIFCSKNTFQKVLNVKSKLKYVETIIILDLNEDLGGYQCLNNFISQNSDINLDVKKFKPNSFNRDDQVALVMFSSGTTGVPKGVMLTHKNIVARFSIAKDPTFGNAINPTTAILTVIPFHHGFGMMTTLGYFTCGFRVVLMHTFEEKLFLQSLQDYKVESTLLVPTLMAFLAKSALVEKYDLSHLKEIASGGAPLSKEIGEMVKKRFKLNFVRQGYGLTETTSAVLITPKXXARPGSTGKIVPFHAVKVVDPTTGKILGPNEPGELYFKGAMIMKGYYNNEEATKAIIDKDGWLRSGDIAYYDNDGHFYIVDRLKSLIKYKGYQVAPAEIEGILLQHPYIVDAGVTGIPDEAAGELPAAGVVVQTGKYLNEQIVQNFVSSQVSTAKWLRGGVKFLDEIPKGSTGKIDRKVLRQMFEKHTNG", "values": [{"measurement": "Luminescence (Li)", "setting": "[1]; [5]", "result": 0.54}, {"measurement": "Signal stability (S)", "setting": "[2]; [5]", "result": 0.9877}, {"measurement": "Enzyme stability (tau)", "setting": "[3]; [5]", "result": 8.9}]}, {"molecule": "78-2b4: mutant luciferase, SEQ ID NO:22 (protein, not fully specified; X: residue not identified in the source) MADKNILYGPEPFYPLADGTAGEQMFDALSRYADIPGCIALTNAHTKENVLYEEFLKLSCRLAESFKKYGLKQNDTIAVCSENGLQFFLPVIASLYLGIIAAPVSDKYVERELIHSLGIVKPRIIFCSKNTFQKVLNVKSKLKYVETIIILDLNEDLGGYQCLNNFISQNSDSNLDVKKFKPNSFNRDDQVALVMFSSGTTGVPKGVMLTHKNIVARFSLAKDPTFGNAINPTTAILTVIPFHHGFGMMTTLGYFTCGFRVVLMHTFEEKLFLQSLQDYKVESTLLVPTLMAFLAKSALVEKYDLSHLKEIASGGAPLSKEIGEMVKKRFKLNFVRQGYGLTETTSAVLITPKXXARPGSTGKIVPFHAVKVVDPTTGKILGPNETGELYFKGAMIMKGYYNNEEATKAIIDKDGWLRSGDIAYYDNDGHFYIVDRLKSLIKYKGYQVAPAEIEGILLQHPYIVDAGVTGIPDEAAGELPAAGVVVQTGKYLNEQIVQNFVSSQVSTAKWLRGGVKFLDEIPKGSTGKIDRKVLRQMFEKHTNG", "values": [{"measurement": "Luminescence (Li)", "setting": "[1]; [5]", "result": 1.97}, {"measurement": "Signal stability (S)", "setting": "[2]; [5]", "result": 1.0094}, {"measurement": "Enzyme stability (tau)", "setting": "[3]; [5]", "result": 1.36}]}, {"molecule": "49-6c10: mutant luciferase, SEQ ID NO:15 (protein, Mutant luciferase) MEDKNILYGPEPFYPLADGTAGEQMFYALSRYADISGCIALTNAHTKENVLYEELLKLSCRLAESFKKYGLKQNDTIAVCSENGLQFFLPIIASLYLGIIAAPVSDKYIERELIHSLGIVKPRIIFCSKNTFQKVLNVKSKLKYVETIIILDLNEDLGGYQCLNNFISQNSDINLDVKKFKPYSFNRDDQVALVMFSSGTTGVSKGVMLTHKNIVARFSHAKDPTFGNAINPTTAILTVIPFHHGFGMMTTLGYFTCGFRVVLMHTFEEKLFLQSLQDYKVESTLLVPTLMAFFAKSALVEKYDLSHLKEIASGGAPLSKEIGEMVKKRFKLNFVRQGYGLTETTSAVLITPNNDVRPGSTGKIVPFHAVKVVDPTTGKILGPNETGELYFKGDMIMKGYYNNEEATKAIINKDGWLRSGDIAYYDNDGHFYIVDRLKSLIKYKGYQVAPAEIEGILLQHPYIVDAGVTGIPDEAAGELPAAGVVVQTGKYLNEQIVQNFVSSQVSTAKWLRGGVKFLDEIPKGSTGKIDRKVLRQMFEKHTNG", "values": [{"measurement": "Luminescence (Li)", "setting": "[1]; [6]", "result": 0.57}, {"measurement": "Signal stability (S)", "setting": "[2]; [6]", "result": 1}, {"measurement": "Enzyme stability (tau)", "setting": "[3]; [6]", "result": 2.2}]}, {"molecule": "49-0g12: mutant luciferase, SEQ ID NO:16 (protein, Mutant luciferase) MEDKNILYGPEPFYPLADGTAGEQMFYALSRYADISGCIALTNAHTKENVLYEEFLKLSCRLAESFKKYGLKQNDTIAVCSENGLQFFLPIIASLYLGIIAAPVSDKYIERELIHSLGIVKPRIIFCSKNTFQKVLNVKSKLKYVETIIILDLNEDLGGYQCLNNFISQNSDINLDVKKFKPYSFNRDDQVALVMFSSGTTGVSKGVMLTHKNIVVRFSLAKDPTFGNAINPTTAILTVIPFHHGFGMMTTLGYFTCGFRVVLMHTFEEKLFLQSLQDYKVESTLLVPTLMAFFAKSALVEKYDLSHLKEIASGGAPLSKEIGEMVKKRFKLNFVRQGYGLTETTSAVLITPNNDVRPGSTGKIVPFHAVKVVDPTTGKILGPNETGELYFKGDMIMKGYYNNEEATKAIITKDGWLRSGDIAYYDNDGHFYIVDRLKSLIKYKGYQVAPAEIEGILLQHPYIVDAGVTGIPDEAAGELPAAGVVVQTGKYLNEQIVQNFVSSQVSTAKWLRGGVKFLDEIPKGSTGKIDRKVLRQMFEKHTNG", "values": [{"measurement": "Luminescence (Li)", "setting": "[1]; [6]", "result": 1}, {"measurement": "Signal stability (S)", "setting": "[2]; [6]", "result": 1.08}, {"measurement": "Enzyme stability (tau)", "setting": "[3]; [6]", "result": 1.58}]}]}
